First the molecules themselves.
T1: human β-FXIIa (HFXIIAB; Molecular Innovations) (human, UniProt P00748 354-362; P00748 373-615)
T1 chain 1: NGPLSCGQR
T1 chain 2: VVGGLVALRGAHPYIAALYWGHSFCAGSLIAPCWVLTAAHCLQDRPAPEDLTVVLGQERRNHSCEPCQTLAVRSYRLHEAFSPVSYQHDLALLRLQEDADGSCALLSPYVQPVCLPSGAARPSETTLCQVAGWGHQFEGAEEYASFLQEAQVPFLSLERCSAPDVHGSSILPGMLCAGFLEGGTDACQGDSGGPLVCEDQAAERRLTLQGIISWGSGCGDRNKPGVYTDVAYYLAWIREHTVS

B1: peptide 5 (peptide 2, Phe3 to leucine) (peptide)
peptide: RCLRLPCRQLRCRW-NH2
modifications: linker 2-7-12 via TATA; N-terminus assumed
SMILES: CC(C)C[C@@H]1NC(=O)[C@H](CCC(N)=O)NC(=O)[C@H](CCCNC(=N)N)NC(=O)[C@@H]2CSCCC(=O)N3CN(CN(C3)C(=O)CCSC[C@H](NC(=O)[C@@H](N)CCCNC(=N)N)C(=O)N[C@@H](CC(C)C)C(=O)N[C@@H](CCCNC(=N)N)C(=O)N[C@@H](CC(C)C)C(=O)N3CCC[C@H]3C(=O)N2)C(=O)CCSC[C@@H](C(=O)N[C@@H](CCCNC(=N)N)C(=O)N[C@@H](Cc2c[nH]c3ccccc23)C(N)=O)NC(=O)[C@H](CCCNC(=N)N)NC1=O
B2: FXII618 variant with P in position six replaced by S (peptide)
peptide: RCFRLSCRQLRCRW-NH2
modifications: linker 2-7-12 via TATA; N-terminus assumed
SMILES: CC(C)C[C@@H]1NC(=O)[C@H](CCC(N)=O)NC(=O)[C@H](CCCNC(=N)N)NC(=O)[C@@H]2CSCCC(=O)N3CN(CN(C3)C(=O)CCSC[C@H](NC(=O)[C@@H](N)CCCNC(=N)N)C(=O)N[C@@H](Cc3ccccc3)C(=O)N[C@@H](CCCNC(=N)N)C(=O)N[C@@H](CC(C)C)C(=O)N[C@@H](CO)C(=O)N2)C(=O)CCSC[C@@H](C(=O)N[C@@H](CCCNC(=N)N)C(=O)N[C@@H](Cc2c[nH]c3ccccc23)C(N)=O)NC(=O)[C@H](CCCNC(=N)N)NC1=O
B3: peptide 15 (peptide 2, Pro6 to alanine) (peptide)
peptide: RCFRLACRQLRCRW-NH2
modifications: linker 2-7-12 via TATA; N-terminus assumed
SMILES: CC(C)C[C@@H]1NC(=O)[C@H](CCCNC(=N)N)NC(=O)[C@H](Cc2ccccc2)NC(=O)[C@@H](NC(=O)[C@@H](N)CCCNC(=N)N)CSCCC(=O)N2CN3CN(C2)C(=O)CCSC[C@@H](C(=O)N[C@@H](CCCNC(=N)N)C(=O)N[C@@H](Cc2c[nH]c4ccccc24)C(N)=O)NC(=O)[C@H](CCCNC(=N)N)NC(=O)[C@H](CC(C)C)NC(=O)[C@H](CCC(N)=O)NC(=O)[C@H](CCCNC(=N)N)NC(=O)[C@H](CSCCC3=O)NC(=O)[C@H](C)NC1=O
B4: peptide 18 (peptide 2, Pro6 to leucine) (peptide)
peptide: RCFRLLCRQLRCRW-NH2
modifications: linker 2-7-12 via TATA; N-terminus assumed
SMILES: CC(C)C[C@@H]1NC(=O)[C@H](CCC(N)=O)NC(=O)[C@H](CCCNC(=N)N)NC(=O)[C@@H]2CSCCC(=O)N3CN(CN(C3)C(=O)CCSC[C@H](NC(=O)[C@@H](N)CCCNC(=N)N)C(=O)N[C@@H](Cc3ccccc3)C(=O)N[C@@H](CCCNC(=N)N)C(=O)N[C@@H](CC(C)C)C(=O)N[C@@H](CC(C)C)C(=O)N2)C(=O)CCSC[C@@H](C(=O)N[C@@H](CCCNC(=N)N)C(=O)N[C@@H](Cc2c[nH]c3ccccc23)C(N)=O)NC(=O)[C@H](CCCNC(=N)N)NC1=O
B5: peptide 83 (FXII618, Arg8 to glycine) (peptide)
peptide: RCFRLPCGQLRCR-NH2
modifications: linker 2-7-12 via TATA; N-terminus assumed
SMILES: CC(C)C[C@@H]1NC(=O)[C@H](CCC(N)=O)NC(=O)CNC(=O)[C@@H]2CSCCC(=O)N3CN(CN(C3)C(=O)CCSC[C@H](NC(=O)[C@@H](N)CCCNC(=N)N)C(=O)N[C@@H](Cc3ccccc3)C(=O)N[C@@H](CCCNC(=N)N)C(=O)N[C@@H](CC(C)C)C(=O)N3CCC[C@H]3C(=O)N2)C(=O)CCSC[C@@H](C(=O)N[C@@H](CCCNC(=N)N)C(N)=O)NC(=O)[C@H](CCCNC(=N)N)NC1=O
B6: peptide 21 (peptide 2, Gln9 to aspartate) (peptide)
peptide: RCFRLPCRDLRCRW-NH2
modifications: linker 2-7-12 via TATA; N-terminus assumed
SMILES: CC(C)C[C@@H]1NC(=O)[C@H](CC(=O)O)NC(=O)[C@H](CCCNC(=N)N)NC(=O)[C@@H]2CSCCC(=O)N3CN(CN(C3)C(=O)CCSC[C@H](NC(=O)[C@@H](N)CCCNC(=N)N)C(=O)N[C@@H](Cc3ccccc3)C(=O)N[C@@H](CCCNC(=N)N)C(=O)N[C@@H](CC(C)C)C(=O)N3CCC[C@H]3C(=O)N2)C(=O)CCSC[C@@H](C(=O)N[C@@H](CCCNC(=N)N)C(=O)N[C@@H](Cc2c[nH]c3ccccc23)C(N)=O)NC(=O)[C@H](CCCNC(=N)N)NC1=O

Starred links: 1 amine or outer side, 2 acyl side, 3 side chain; linkers in the order of their positions; H or OH if unused. Positions of bridges follow the written chain, without caps; N, C: chain ends. Non-standard residues stand in square brackets, D forms with d. No end group written: not given here. TATA = O=C(CC[*:1])N1CN(C(=O)CC[*:2])CN(C(=O)CC[*:3])C1; Bta = N[C@@H](Cc1csc2ccccc12)C(=O)O; βAla = NCCC(=O)O

One assay deals with T1, human β-FXIIa (HFXIIAB; Molecular …). Description: enzyme inhibition.
Regarding RC[Bta]RLPCRQLRCRW-NH2 (linker 2-7-12 via TATA) [FXII618 variant with F in position three replaced by 3-benzothienylalanine], the inhibitory constant (Ki) is 23 nM.

For the molecule B1, the affinity corresponds to a Ki of 70 nM.

A further assay has the same target. In words: enzyme inhibition. The source holds these as a separate data set.
RCFRLNCRQLRCR [Pro6 Asparagine (19)] came in with a Ki of 264 nM.

Take B2: affinity was put at a Ki of 75 nM.

For the molecule RCFRLDCRQLRCR [Pro6 Aspartic acid (20)], the affinity, expressed as Ki, was 307 nM.

With B3, the affinity, expressed as Ki, was 50 nM.

For the molecule B4, the affinity, expressed as Ki, was 20 nM.

Molecule RCFRLVCRQLRCR [Pro6 Valine (17)] gave a Ki of 119 nM.

The target is the same in the next assay. Description: enzyme inhibition; TATA-cyclized.
Turning to ACWGAAQRCKVMQGECG [FXII528], the affinity, expressed as Ki, was 3700 nM.

The molecule ACWGAASACQQGGAKCG [FXII534] came in with a Ki of 2400 nM.

ACWGAALSCNPQGSRCG [FXII527]: the Ki came to 8500 nM.

In turn, ACWGACQNVCR [FXII506] returned a Ki of 6300 nM.

LCSRLPCEQLPCN [FXII514] yielded a Ki of 10200 nM.

RCWGACLNVCS [FXII502]: affinity was put at a Ki of 1200 nM.

Regarding GCCYLRYLCS [FXII513], the Ki worked out at 350 nM.

For RCWYGCVPQCY [FXII509], affinity was put at a Ki of 1000 nM.

In the case of LCPRLSCHQLGCS [FXII515], affinity was put at a Ki of 2500 nM.

As for VCWGACLNVCP [FXII504], the Ki is 1900 nM.

For another assay the target is unchanged. Description: enzyme inhibition. This is another data set of the same source.
Regarding RCFRLPCRQLRCA [FXII616], the affinity corresponds to a Ki of 31 nM.

In turn, RCFRLPCEQLSCE [FXII612] gave a Ki of 63 nM.

As to RCFRLPCAQLRCE [FXII608], the Ki was 44 nM.

In the case of RCFRLPCWQLSCE [FXII615], the Ki was determined as 246 nM.

On to ACFRLPCAQLSCE [FXII610], for which affinity was put at a Ki of 231 nM.

Take RCPRLPCAQLSCE [FXII607]: the affinity corresponds to a Ki of 985 nM.

Consider RCFRLPCAQLRCR [FXII617], for which the Ki was 25 nM.

In turn, RCPRLPCAQLRCE [FXII609] displayed a Ki of 123 nM.

As for RCFRLPCRQLSCE [FXII614], the Ki turned out to be 39 nM.

Molecule RCFRLPCSQLSCE [FXII613] registered an inhibition constant (Ki) of 62 nM.

The target is the same in a further assay. In words: enzyme inhibition. The source holds these as a separate data set.
For the molecule RCFRLPCRNLRCR [Gln9 Asparagine (22)], the affinity, expressed as Ki, was 2550 nM.

RCFRLPCRHLRCR [Gln9 Histidine (24)] yielded a Ki above 10000 nM.

RCFRLPCRELRCR [Gln9 Glutamic acid (23)]: the Ki was above 10000 nM.

B5 registered a Ki of 52 nM.

Molecule B6 returned a Ki of 1400 nM.

RCFRLPC[βAla]QLRCR-NH2 (linker 2-7-12 via TATA; not fully specified) [peptide 82 (FXII618, Arg8 to β-alanine)] returned a Ki of 755 nM.

The values above are taken from patent US20180118786A1 (published 2018).
